assay: protease stability score; higher = more stable; yeast display proteolysis, trypsin and chymotrypsin;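 note: relative to predicted unfolded state with 0 unfolded-like and 1 meaning tenfold more protease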

Sequence | protease stability score
DEDEELLRRRADLFLKAYITGDENLLKRLADPDVLFDVNGRVFHGREHFITWLHRQLREFKNMRIHIRDIKHEVQGNFLHSEVDVTININGKEHWFILILIASKVDGKWIVEQIEIRFE | 1.48
SEEEEILRHILERFANVLHTGDFDWLSKMADPHVRFDVNGREFHGREEVIQAVRDWRERLGIKHLHVKDIRLQGDKMHLNGRMEFDGVIEDTRIIHQVVDGRLRSIEIRTK | 0.16
SQLEVASTEALELLRFSLETGDWEFLLRLADPNTRIEINGVTFHGREDMEEIMEEKFRRFKNVKVELDVKEVHFQGDKVRIRVVEFWKVDGQEIFIDSRIVMIKVNGRWVYKELRVH | 0.7
SEEEEEIRRTIEMLLKAWQTGDEEFWMRLFDPHYRFEINGKVYHGREVMRLERRRIDYIHRVEYRIDHIDTQGDKVIIRFTLHLDVEFDGVRTELHEHRVIIIEKVNGQWRLKSVEIE | 1.46
SEEEIMTKLAEKILKMHWDTGDERIRKELADPHVRIDQGDFNLHGWEVLHLTLNLLGVTKFRLHILEIHDVSMQGDKIEMDIEVHMHVNGRKISFRVQVHSIKIDGKWKQHSLIIH | 0.153
DHIDEDAAHVSRVLLTLLRTGDEETLFQLLDPNMRVDVNGVELHGREEWWKHVYRRNKELGMEVKYHLHKLTVINGVAHIDFRIEIYIGDKRIEYRHEVHIEKINGVWLVREIREG | 1.47
EEDDEILEKAIRLHEHMLRTGDPREFWELADPHYKLNIGDKHIHGRETLLRHTLHKIEEYGFKHSRFVPKDWELQGDKIHLRGELILHFNGREHRYDYHIEAIKVNGQWVLHRIDIQ | 1.23
DEEDKWETHFLKVLEDSLKTGDETSLERMADPTARLSVGDKEHHGRDLLFFWIHKLLREAGVDKVESELHDEERQGEKVIVDIHLRVGDKVLRVIFYIYKYNGQWFIRSIEVE | 1.04
DESEKYLKDAVEILIRVIRTGDEHTMKELLDPNVRLHAENHESHGRELLEWWTRRIDHVNDSKIEDMRTVGDYVELDMRLHTVFNGQTIDIKTTFIIIKVNGKWQLRSVHIH | 1.26
TEEEEELRRIEHLTIELIETGDEDTLKRLADPNARLNIEFNGVHIHSHGREEMARLLHEWYRTMGIKHEELKRSEIQGDKVILHTELRIGDKTVSTIIITLVINGRIKWIRIIIK | 1.36
SEDEEMLRRIIEELNRAHKTGNWRRIAELMDPDVRLIIGDKENHGRSVLIEWLKRIDHIEVESVDIHHIDSQGDKIILHGQVHLINVYNGVEVQENRDMTVILIKVDGRWFFHSIRVR | 2.56
TELEDLVKRLWHIWLHAVLTGDEDLLTKLIDPHARLEIHIGDKEFIHIGREEFVRFMREYHRHLRVERVDERSMEVIGNKSHSDVRTVIHIDGRTIDTRMHIDLIVVNGRVKSLEIHVH | 2.26
DEDLEETRKLIELLTRAFFTGDEDEMKNLADPSVRIIINGREVHGMDEWVRLLEEIRLEDVHSNLRDIRYFNGVVEVDGEFRLDGNINGRRFHHVFDLRLYVIKVNGRWRVKSWRNI | 1.83
SEDHLEARETVTEELRARQTGDERRLDELIDPNTRLEINGKEVHGMEQIIEETRRLGVDVVEIRLERHDRFNGVIHVRGRLHYNWNGKSIDHETELIVYKVDGQWIVHSIHVL | 1.05
DENTRLRREAFRIERKTWKTGDERLLEENADPDAKYDVDGKDLHGWREVVHFLDDFLKRFGFDHFEVKEIRVQGEKIIIDGRVEVNGRVFETRVIFTKFDGQWSVQSLQMR | 0.444
DEEEEEDKRMADEIVHSFLTGNEDWLHELADPNTRSEVGDKEAHGRENMVKLLRIHLRELGVDHIELTHVRVHSQGDKIIVIVHGKVKIGDKILELHIHIIVLKIDGRWLLHSVRIEIN | 1.09
DERDEETRRAIEWWVEVLKTGNFKDIKELADPNARVHQGDKHFHGMDHFLDFLERLGIDHVQINHIHYFDGKIEIDHHVRIGDKETRVIFISDKIDGRWRITEVQFH | 1.13
DEEHEEVERMWERFIKYYLTGNEELFDHLADPNVRLIIGDKIAIGREEVRKLWERRRREIRIRHMNFHSVRWYDGRIDLEVEVNLDVNGREIKTEQRIHIKVINGRVKDVEIRVE | 0.743
DDELKTTHKFAKEFVDQLTTGDWEWHDKLFDPDARMSMIIDGREVRLHGREELTRWHLKVFEDLGIERVHSRYEHMHVVDGQIHFRGVLEFNGQRREFHIDMRIVDGRMHEFHEIHN | 0.329
DEDEKYLKEFLRILIEARRTGDEQLLERLMDPRVKLDNENHFSHGREDAVRHLNEHSKEARLESVEVHDVRVFNGVILWDVRIHGDIDGRRDTFNVIIIILKVNGRWRLREFIFT | 1.39
DEKEEFTRRFAQILIELWKTGDEEDMNNNMDPDVQNHSEFNGREVHLIGMELYVEHSEQWLNRVKNARIIWRHVDAQGDKILIHGDLIVNGKRIHVELDFYIVNGRIKSITIHER | 2.02
DEWEKDARDFTRILLEIFKTGDEKSITELLDPNARVEYGDKEMHGMHLMSRILLKDAKEIRVDHMRLRSIDVYNGVLHVNMEVDGTIDGRRDTYRLHVHTHKFDGRWRVENLIIR | 1.06
TEEERDMKHLAELALESFLTGDFEIIKKLADPNVRSVIDGRDYHGMEEVHRYLEELLRMLGVKVSRIEDERLRIINGRVTVETDIRLNVDGKIFRVTLHFFFHKFNGRWRIEEIRIHIE | 0.537
SEDRKFIKEMFEETFRRWETGDEDHIRRYVDPHTKLRILIDGREHTHHGREEFTKMMIDLSEQLGIKHLHIENLHIQGDKAELRGREEVGDKDEHVTIIAHKVNGQWTIETLHIEVR | -0.376
DEETRDLHHALRIVLHILRTGDFSHLFEYADPHVKIDINGKEVHGMEQMHHEIERLYFELGVDNVTVQHKRIIVYDGRVLVHMISHIGDKWRDIIIIFLKVNGRWRLHSIEVK | 1.72

Sequence | protease stability score
SEDERDISEVLEEISRIWKTGDEKRFRDLADPNVKMVVNGRELHGRDFAIEAWRKFRELYGIKHIRTVQVNSIDIQGDKVHVDTSMDGQQGEKRTVLRSEIIMLKVDGRWHLESMSFG | 1.72
SDLERHISEVFKDIIEMEETGDEEELDKLADPNVRIDIDGVELIGRESLRRWVESVVDQIKGIKKHIVIRHLRVFNGRADSDGELRIHINGKTIVRKVRIHITVVNGRLKEMQFRTE | 1.19
SEEEDYMRELAERFLHAFITGDWQFIYKMFDPRVRWNVDGQNFVGREQLVHHLEKIKREMRVRHFELKDIKIIDGVSFINGRVDTTYGDKSSEHEVHISLVLIDGRVKHVQIRLE | 2.34
SEETEIIERAMKILLEILETGDEDRQRELMDPHYRLLIGDKVFHGREWAIKWAREIRVDRVELEDREIQGEKLLLHGHIHIRVGDKHHTMEVLIIVEKIDGRWRTHSRHVK | 0.651
DEREERNKQISELLWHALLTGNWEMLQHLADPHVRVDINGVDLHGRELLVKHLKKFGVDHSRHHDLEIQGEKLIIRGEVEVNGKRIDVEIRIEVIDGKVKHVEVHEN | 1.24
REEEEEVKRNAHITVHILLTGDFHHHSRLFDPHVRSEWNGVELHGMEEDLKWWIELVKHLRFKHFEIHDIRVYDGVADNDINEVIKVNGKDFTFKSSIILIIINGQIRELKFVIN | 0.073
SEREQTVRHWVELLIHLLITGDEETLVHLLDPHARADIDGVEMHGRKTTEFWLKLFPHIKIELRRVEIQGEKVHMDTTMIQGEKERSTRIHLDVINGRIKRHSYEIE | 0.262
TEQMEWVEDIVRILVESINTGDEHVLKEMLDPNVRIHIGDKNVIGMEFIHRWLKEIRIEHLRVEISDVRFIGDKVKVRGRLKLHVDVDGRRHDVSHDVIIVFEKVDGKWFEREDRLL | 1.23
SEEDELAHRWVRTWVRAVETGDEDTLTELFDPHARIIITIGDKDIRLHGMHEMLRWYRFFKGMRIELEDMDIQGEKIDTDIRLHQGDKTTTTKLQLHIVNGRMEHVILRVQ | 1.54
HEEEEEARRFSTLFNRAMLTGDEDELKEYADPHVRIDINGVILHGRERLREWLEKYLKEIRWHDFKIEHVDVQGDKVDIKVNVDGHINGRRTTRETEIRVEKIDGRWVIREIRFR | 0.673
REDEEFAIHMFLNLIRWLMTGDEEQLEELADPDTKYHQGDKTLHGREEFLKWFHLMHKWLGIKHIEMRITDLRAVDGRVESEVSVDEHYDGRTKRYRTIIIVNVVNGKLKSEERHID | 1.22
DEHEHVVERMARIQYKEMVTGDEELWYHLADPRVRYEIGDKEIIGREEVFRFIIEHKRDLGISKIDVRIRDIDLQGEWAIIDGTININGRKLETTIHLLVVDGRLKTFSLEIK | 1.33
DEIEHAVRLAYERWLHEFETGDEEETLRNADPDTMIVINGRHLHGREHFTRWLKRIDHQHMHHEDFTHIDHQGDKLHLNVHVSIEVEINGVRYVLEHENEIVQTKIDGQWILTYIIIR | 1.25
DEDTELMRHIIERLLRSSKTGDEDSMADLLDPNVRIVNEDERLHGRELASRFMYELRIHHFELTRFKVYDGKIDIDGIHDGEINGVRRRVWVEFISVKVNGKWQIKELRIG | 1.35
DEMKEWIRELIERWTHAFLTGDEDELKRLVDPHAKLDINGRDVIGREDFVEHLRRLFEELGVKHVSSRMRDIKIVNGRAHVDSEFRLRVGEKQESHRMHIISDKYNGRWVIQSIHVE | 1.93
DELKTDFENAIRLYEHATKTGDEHEIRKLLDPHVRVDINGREHHGMEHYSDLLHEFLKRLGADHIQFEFKDSHLQGNKLHLHGIIHVHVGDKTHTIDSSVIYEKVDGRWIISSVWYR | 1.01
DENRKFARVMTELILHSWYTGDWELDVKLADPNVLNDFNGKEIHGMENVSRQFIEMRIDDVRIRDLRIEVYGEKLISKIDGERNGHFDGRTVDTRMHLELIMEKINGRWIIREIRIEVK | 2.59
NEDEEHFKKWFEKYLRSLRTGDEENTRKLFDPHVRIEFENHELHGWENAVRFFRELHHRADVIHLELHDYTIVGDYVYIDVIVHLIYNGREFRHDVKIDASKIDGQWRIESLSIK | 1.64
SHEEEDEHRLVIEWLEAVLTGDEDRLTELFDPNMRFVFENHQVHGRERVSKLLVRHMLEWRTRVKIEDMEYFNGRLHIDMELHVDVNGRHVNIKSLLIVEKINGKWFVRSVRVR | 0.534
SHEEHEMHNALKLLLDAWRTGDEDSLNNNADPRMKIKVNGKEFVGMEHMTHFLRELLEELRFTDSTVTELDIVNGVLISVTRLHIEVGDKRMDFHTRLVFTKVNGRWRLHSLVLI | 1.99
DEDERHMRQTLEDYDHAVETGDWKRLRELADPDYKTDIDGVEIHGMELFWEHLRREVEKYKNVKVEFRLKRIRSIGDFMEIDGRLTLKYGDKEIRVRVIIHAIKVDGRWLFHRMIFG | 1.69
SEEDEFNREMRREIIEAWETGDFRIIEKLLDPNAKVVVGDYIDHGRHAIEVWLKRYDVRRRRDYKHVEVYDGVIRSDVRMDGEINGQRKITSVHIIFVIINGRIHQVEIHIH | 1.25
SKDEEDAEEFFEKWLRYSRTGDEKSMEELMDPNTKIDFNGKEIHGREEVLRFLIELRVHHIEIKRISSINGKLHIDGRFDIIYGDKRIDTRTVLEIDKINGRWHLHTVRFV | 2.12
DEEHEAIEQFLRIIIENARTGNEEFLYKYFDPHVRIHIDGQNMVGREEWVEWLRQIRHQVDSFHIKHIEVQGDKLILEGHLEIKLHINGQELHKHVEVRYEINKVNGRWLLRSVHIK | 1.74
DEDEERMHWMVEVLLRMLETGNEEIVKRLVDPNARVHTEDHSSMGREEFSRFMLELAKRFDVFHDVELKHVEVQGEKIILDGKFHIEVNGRRNYLDIELIIIKIDGRWKIEEVRFH | 1.25

Source: the NTF2 design screens of Basanta et al. (2020)
